Reference: PMC10528418 (Molecular cell, 2023)

T1: TFIIIC subunit τ138 (S. cerevisiae, UniProt P34111 1-1160)
T1 sequence (looked up): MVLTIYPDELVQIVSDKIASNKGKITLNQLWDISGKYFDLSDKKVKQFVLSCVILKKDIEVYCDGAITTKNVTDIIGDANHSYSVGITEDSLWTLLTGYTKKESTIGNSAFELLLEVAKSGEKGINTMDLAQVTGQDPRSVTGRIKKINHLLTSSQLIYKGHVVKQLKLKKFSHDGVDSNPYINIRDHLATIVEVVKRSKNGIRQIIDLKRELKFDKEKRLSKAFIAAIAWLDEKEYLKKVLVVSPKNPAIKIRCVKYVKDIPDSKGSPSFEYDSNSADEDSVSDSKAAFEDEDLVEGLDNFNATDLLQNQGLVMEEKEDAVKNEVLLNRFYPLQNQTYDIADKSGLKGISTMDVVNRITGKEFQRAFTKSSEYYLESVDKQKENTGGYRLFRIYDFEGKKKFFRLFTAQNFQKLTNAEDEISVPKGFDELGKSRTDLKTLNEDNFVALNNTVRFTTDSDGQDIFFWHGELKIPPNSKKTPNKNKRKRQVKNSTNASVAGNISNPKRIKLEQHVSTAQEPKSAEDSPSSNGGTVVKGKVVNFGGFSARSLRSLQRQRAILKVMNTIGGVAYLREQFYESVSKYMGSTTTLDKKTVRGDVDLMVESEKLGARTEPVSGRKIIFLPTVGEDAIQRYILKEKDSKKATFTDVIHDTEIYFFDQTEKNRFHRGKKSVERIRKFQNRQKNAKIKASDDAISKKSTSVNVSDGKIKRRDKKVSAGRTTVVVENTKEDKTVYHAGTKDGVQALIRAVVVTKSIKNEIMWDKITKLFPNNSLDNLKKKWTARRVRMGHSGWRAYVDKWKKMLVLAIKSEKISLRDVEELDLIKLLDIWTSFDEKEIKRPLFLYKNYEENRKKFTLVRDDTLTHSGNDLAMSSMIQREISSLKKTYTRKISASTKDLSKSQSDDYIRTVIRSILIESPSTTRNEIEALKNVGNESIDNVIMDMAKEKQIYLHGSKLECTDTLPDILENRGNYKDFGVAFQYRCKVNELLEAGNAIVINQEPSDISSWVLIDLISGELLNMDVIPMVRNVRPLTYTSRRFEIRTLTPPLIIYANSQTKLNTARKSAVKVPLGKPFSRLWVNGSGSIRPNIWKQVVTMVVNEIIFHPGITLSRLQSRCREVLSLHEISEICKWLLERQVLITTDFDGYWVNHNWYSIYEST

B1: TFIIIC subunit τ131 (natural protein, S. cerevisiae, UniProt P33339 1-1025, looked up)
chain: MAAGKLKKEQQNQSAERESADTGKVNDEDEEHLYGNIDDYKHLIQDEEYDDEDVPHDLQLSEDEYNSERDSSLLAEFSDYGEISEDDEEDFMNAIREASNFKVKKKKKNDKGKSYGRQRKERVLDPEVAQLLSQANEAFVRNDLQVAERLFNEVIKKDARNFAAYETLGDIYQLQGRLNDCCNSWFLAAHLNASDWEFWKIVAILSADLDHVRQAIYCFSRVISLNPMEWESIYRRSMLYKKTGQLARALDGFQRLYMYNPYDANILRELAILYVDYDRIEDSIELYMKVFNANVERREAILAALENALDSSDEESAAEGEDADEKEPLEQDEDRQMFPDINWKKIDAKYKCIPFDWSSLNILAELFLKLAVSEVDGIKTIKKCARWIQRRESQTFWDHVPDDSEFDNRRFKNSTFDSLLAAEKEKSYNIPIDIRVRLGLLRLNTDNLVEALNHFQCLYDETFSDVADLYFEAATALTRAEKYKEAIDFFTPLLSLEEWRTTDVFKPLARCYKEIESYETAKEFYELAIKSEPDDLDIRVSLAEVYYRLNDPETFKHMLVDVVEMRKHQVDETLHRISNEKSSNDTSDISSKPLLEDSKFRTFRKKKRTPYDAERERIERERRITAKVVDKYEKMKKFELNSGLNEAKQASIWINTVSELVDIFSSVKNFFMKSRSRKFVGILRRTKKFNTELDFQIERLSKLAEGDSVFEGPLMEERVTLTSATELRGLSYEQWFELFMELSLVIAKYQSVEDGLSVVETAQEVNVFFQDPERVKMMKFVKLAIVLQMDDEEELAENLRGLLNQFQFNRKVLQVFMYSLCRGPSSLNILSSTIQQKFFLRQLKAFDSCRYNTEVNGQASITNKEVYNPNKKSSPYLYYIYAVLLYSSRGFLSALQYLTRLEEDIPDDPMVNLLMGLSHIHRAMQRLTAQRHFQIFHGLRYLYRYHKIRKSLYTDLEKQEADYNLGRAFHLIGLVSIAIEYYNRVLENYDDGKLKKHAAYNSIIIYQQSGNVELADHLMEKYLSI
B2: S. cerevisiae TFIIIA (natural protein)
chain: MGGEVLNNEGMPLAELKQETIPISRSESSESLNSLTSTRSSSSNRPKTYFCDYDGCDKAFTRPSILTEHQLSVHQGLRAFQCDKCAKSFVKKSHLERHLYTHSDTKPFQCSYCGKGVTTRQQLKRHEVTHTKSFICPEEGCNLRFYKHPQLRAHILSVHLHKLTCPHCNKSFQRPYRLRNHISKHHDPEVENPYQCTFAGCCKEFRIWSQLQSHIKNDHPKLKCPICSKPCVGENGLQMHMIIHDDSLVTKNWKCHICPDMSFSRKHDLLTHYGSIHTEEDIPLELKYKISDIQQLVQDHGVQLGNSKHSNEQDEEKISNRLRKRRKLTENNNVEFLQNEVDLEKRLESGENGLNLLLNTVGRKYRCFYNNCSRTFKTKEKYEKHIDKHKVHELKLKILQEKEENKTLVDQNHKEPFIIQKETQSAGDK
B3: TFIIIC subunit τ91 (natural protein, S. cerevisiae, UniProt Q06339 1-672, looked up)
chain: MAVIPAKKRGRPRKSVVAEVPYDSLASPVSENSGSKRPRRNASKKAVANFAQLVHAGRDDVINTTQVNNVDDTDDDDFVLNDEGDGEESDNVEIEFENELESTKNEVADLNSSGSGASVRPSGRRNTVQKLRLKKNSTKNMKSSSPGSSLGQKGRPIRLLKDLSSARDKIERIYGLNKEKLLLLAKVKEGFETSVFDFPFKNIQPDSPYFVCLDPPCKKESAYNKVIGDKNRTVYHEINKTEFENMIKLRTKRLKLLIGEVDAEVSTGDKIEFPVLANGKRRGFIYNVGGLVTDIAWLNIEENTDIGKDIQYLAVAVSQYMDEPLNEHLEMFDKEKHSSCIQIFKMNTSTLHCVKVQTIVHSFGEVWDLKWHEGCHAPHLVGCLSFVSQEGTINFLEIIDNATDVHVFKMCEKPSLTLSLADSLITTFDFLSPTTVVCGFKNGFVAEFDLTDPEVPSFYDQVHDSYILSVSTAYSDFEDTVVSTVAVDGYFYIFNPKDIATTKTTVSRFRGSNLVPVVYCPQIYSYIYSDGASSLRAVPSRAAFAVHPLVSRETTITAIGVSRLHPMVLAGSADGSLIITNAARRLLHGIKNSSATQKSLRLWKWDYSIKDDKYRIDSSYEVYPLTVNDVSKAKIDAHGINITCTKWNETSAGGKCYAFSNSAGLLTLEYLS
B4: TFIIIC subunit τ95 (natural protein, S. cerevisiae, UniProt P32367 1-649, looked up)
chain: MPVEEPLATLSSIPDSSADQAPPLIADEFTLDLPRIPSLELPLNVSTKHSSIQKAIKMCGGIEKVKEAFKEHGPIESQHGLQLYLNDDTDSDGSKSYFNEHPVIGKRVPFRDESVILKVTMPKGTLSKNNNSVKDSIKSLKDSNKLRVTPVSIVDNTIKFREMSDFQIKLDNVPSAREFKSSFGSLEWNNFKSFVNSVPDNDSQPQENIGNLILDRSVKIPSTDFQLPPPPKLSMVGFPLLYKYKANPFAKKKKNGVTEVKGTYIKNYQLFVHDLSDKTVIPSQAHEQVLYDFEVAKKTKVYPGTKSDSKFYESLEECLKILRELFARRPIWVKRHLDGIVPKKIHHTMKIALALISYRFTMGPWRNTYIKFGIDPRSSVEYAQYQTEYFKIERKLLSSPIVKKNVPKPPPLVFESDTPGGIDSRFKFDGKRIPWYLMLQIDLLIGEPNIAEVFHNVEYLDKANELTGWFKELDLVKIRRIVKYELGCMVQGNYEYNKYKLKYFKTMLFVKESMVPENKNSEEGMGVNTNKDADGDINMDAGSQMSSNAIEEDKGIAAGDDFDDNGAITEEPDDAALENEEMDTDQNLKVPASIDDDVDDVDADEEEQESFDVKTASFQDIINKIAKLDPKTAETMKSELKGFVDEVDL

How the values were obtained:
TFIIIC subunit τ138 = molecular target: T1, TFIIIC subunit τ138; assay: cryo-EM structure
TFIIIC subunit τ131 = molecular target: B1; assay: cryo-EM structure

Row | binding result (TFIIIC subunit τ138) | binding result (TFIIIC subunit τ131) | Binder
1 | binds |  | B1
2 | binds |  | B2
3 |  | binds | B3
4 | binds | binds | B4
